Data: the Human Domainome abundance scans (Beltran et al. 2025)

B1: Protein S100-G, residues 1 to 79; numbered along this chain, P02633 (parent)
chain: MSAKKSPEELKGIFEKYAAKEGDPNQLSKEELKLLLQTEFPSLLKGPSTLDELFEELDKNGDGEVSFEEFQVLVKKISQ

Variants of: B1
Assay: abundance fitness (aPCA) (normalised: wild type 0, dead -1); higher = more abundant; growth selection in yeast, the domain comes from the species named
Details: Bos taurus

Abundance fitness of substitutions, site by site:
Q79: K 0.046 | M 0.026 | L -0.017 | H -0.048 | P 0.254 | N -0.154 | A 0.008 | G 0.074 | I -0.346 | R 0.16 | C -0.032 | D -0.191
E64: G 0.059 | K -0.028 | H 0.048 | F -0.055 | W 0.155 | P 0.008 | M 0.035 | T 0.073 | C 0.032 | S 0.002 | D 0.049 | L -0.055 | V -0.065 | N -0.026 | Y -0.049 | Q 0.081 | A 0.01 | I -0.101
V72: L -0.004 | G 0.038 | E -0.092 | Q -0.059 | N -0.012 | D -0.068 | P -0.018 | Y -0.059 | F -0.032 | A -0.034 | T 0.053 | I -0.022 | S -0.043 | H -0.029 | M -0.035 | K 0.022
E68: L -0.098 | F -0.062 | R -0.046 | D -0.005 | C -0.073 | H -0.001 | K 0.018 | A -0.016 | Q -0.099 | P 0.009 | G -0.06 | T -0.012 | M -0.044 | Y -0.216 | N -0.047
L73: V -0.017 | F -0.124 | S -0.187 | H -0.151 | K -0.413 | A -0.112 | D -0.668 | M -0.05 | I -0.016 | G -0.041 | E -0.247 | N -0.273 | R -0.473 | W 0.015 | Y -0.05 | Q -0.28 | T -0.071 | C 0.065 | P -0.797
F70: I -0.534 | N -1.25 | S -0.531 | G -0.73 | P -0.94 | D -1.14 | Q -1.01 | L -0.157 | V -0.165 | R -0.797 | T -0.162 | W -0.115 | H -1 | K -0.965 | A -0.157 | Y -0.039 | C -0.169 | E -1.25 | M -0.105
N60: Q -0.043 | C -0.102 | W -0.091 | D 0.058 | G 0.027 | A 0.101 | K -0.105 | H -0.05 | T -0.042 | L -0.034 | R 0.014 | M -0.164 | F -0.156 | P 0.004 | E 0.108 | I 0 | S 0.04
S66: H -0.146 | M 0.008 | N 0.014 | K -0.066 | Q -0.101 | E 0.048 | F -0.124 | C 0.053 | P -0.107 | A -0.009 | G 0.033 | V 0 | Y -0.086 | T 0.029 | L -0.137 | W -0.382 | R -0.036 | I -0.101
G61: L -0.063 | V -0.021 | M -0.026 | K -0.05 | S 0.019 | Y -0.065 | C 0.026 | Q -0.021 | E 0.067 | N -0.072 | W -0.024 | H -0.163 | F -0.006 | P 0.007 | T 0.006 | I -0.019 | R -0.042
K75: S -0.023 | Q -0.11 | F -0.151 | D -0.063 | T -0.073 | L -0.045 | G -0.022 | Y -0.173 | W -0.125 | P -0.186 | M -0.098 | H 0.01 | R -0.074 | V -0.074 | C -0.148 | I -0.167
